First the molecules themselves.
T1: Human LY6K (R&D Systems) (human, UniProt Q17RY6 18-138, limits assumed)
T1 construct: Bought from R&D Systems, coated on ELISA plates; also called hLY6K
T1 sequence: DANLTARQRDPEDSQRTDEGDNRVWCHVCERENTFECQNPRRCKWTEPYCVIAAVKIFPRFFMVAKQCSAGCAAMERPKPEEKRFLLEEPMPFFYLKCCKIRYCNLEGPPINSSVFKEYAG

T2: human LY6E (R&D Systems) (human, UniProt Q16553 21-101, limits assumed)
T2 construct: also called hLY6E
T2 sequence (looked up): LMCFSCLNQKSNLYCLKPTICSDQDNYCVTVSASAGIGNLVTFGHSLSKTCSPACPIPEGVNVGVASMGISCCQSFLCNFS

T3: cell-surface anchored LY6K (human, UniProt Q17RY6 18-138)
T3 construct: the cell is named under assay; also called LY6K on target cells
T3 sequence: T1 sequence

T4: recombinant human LY6K (Wuxi) (human, UniProt Q17RY6 18-138)
T4 construct: Limits of the construct not clearly stated; also called Human LY6K (Wuxi LY^KGLY138(1-38TR)_8His)
T4 sequence: T1 sequence

T5: hLY6K-his (human, UniProt Q17RY6 18-138, limits assumed)
T5 construct: not shown: his tag
T5 sequence: T1 sequence

T6: hLY6K-mFc (human, UniProt Q17RY6 18-138)
T6 construct: not shown: mFc
T6 sequence: T1 sequence

T7: Ly6D
T7 chain: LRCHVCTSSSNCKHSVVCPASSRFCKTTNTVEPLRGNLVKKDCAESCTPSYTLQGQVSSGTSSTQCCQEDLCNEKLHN

T8: Ly6H
T8 chain: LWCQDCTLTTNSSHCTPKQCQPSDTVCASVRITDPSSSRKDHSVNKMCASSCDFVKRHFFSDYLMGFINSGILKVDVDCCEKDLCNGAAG

B1: anti-LY6K antibody 3101 (antibody, V domains shown)
VH: EVQLVESGGGLVQPGRSLRLSCAASGFTFDDYAMHWVRQTPGKGLEWVSGITWKSGNIGYADSVKGRFTISRDNAKNSLYLQMNSLRAEDTALYYCAKDTEAGLDYWGQGTLVTVSS
VL: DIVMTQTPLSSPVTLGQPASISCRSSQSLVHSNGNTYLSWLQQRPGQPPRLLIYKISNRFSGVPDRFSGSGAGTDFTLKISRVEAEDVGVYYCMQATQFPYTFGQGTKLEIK
B2: anti-LY6K antibody 3048 (antibody, V domains shown)
VH: B1 VH with T40A, N57T, T100S, E101R, A102T, T111A
VL: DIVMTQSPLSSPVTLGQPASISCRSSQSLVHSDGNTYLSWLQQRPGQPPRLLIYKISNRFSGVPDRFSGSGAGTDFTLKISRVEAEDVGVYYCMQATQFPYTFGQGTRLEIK
B3: anti-LY6K antibody 3481 (antibody, V domains shown)
VH: B1 VH with P14S, T40A, S55D, G56V, N57T, R87G, E101S, A102D
VL: DIVMTQTPLSSPVTLGQPASISCRSSQSLVHSNGNTYLSWLQQRPGQPPRLLIYKISNRFSGVPDRFSGSGAGTDFTLKISRVETEDVGIYYCMQAIQFPYTFGQGTKLEIK
B4: anti-LY6K antibody 3096 (antibody, V domains shown)
VH: QVQLVQSGAEVKKPGASVRVSCKASGYTFTGYYIHWVRQAPGQGLEWMGWINPNSGGTNYAQKFQDRVTMTRDTSISTVYMELSRLRSDDTAVFFCAREASNFWGQGTLVTVSS
VL: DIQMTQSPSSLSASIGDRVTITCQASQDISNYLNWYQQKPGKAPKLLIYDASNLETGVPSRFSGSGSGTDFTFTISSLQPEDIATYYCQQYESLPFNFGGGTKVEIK
B5: anti-LY6K antibody 3741 (antibody, V domains shown)
VH: EVQLVESGGGLVKPGGSLRLSCAASGFTFSSYSMNWVRQAPGKGLEWVSSISSSSNYIYYVDSVKGRFTTSRDNAKNSLYLQMNSLRAEDTAVYYCARQEATGNNYYYYYMDVWGKGTTVTVSS
VL: DIQMTQSPSSLSASVGDRVTITCRASQSISNYLNWYQQNLGKAPKVLIYAASSLQSGVPSRFSGSGSGTDFTLTISSLQPEDFATYYCQQTYSTPITFGQGTRLEIK
B6: anti-LY6K antibody 3705 (antibody, V domains shown)
VH: EVQLVESGGGLVHPGRSLRLSCAASGFTFDDYAMHWVRQAPGKGLEWVSGISWKNGKIDYADSVKGRFITSRDNAKNSLYLQMNSLRTEDTALYYCAKDRIEMTFDIWGQGTMVTVSS
VL: B3 VL with T7S, V30E, T85A, I90V, A96T, I97T, Y101L, Q105G, L109V
B7: anti-LY6K antibody 3074 (antibody, V domains shown)
VH: B6 VH with N55T, G56N, I69T, L93F, I101R
VL: B3 VL with V30E, T85A, I97T, Y101L, Q105G, L109V
B8: anti-LY6K antibody 3785 (antibody, V domains shown)
VH: QVQLQQSGPGLVKPSQTLSLTCAISGDSVSSNSAAWNWIRQSPSRGLEWLGRTYFRSKWNNDYTLSVKNRITINPDTSKNHFSLQLNSVTPEDTAVYYCAGGGYCNRTYCPDVFDIWGQGTMVTVSS
VL: DIQMTQSPSSLSASVGDRVTFTCRSSQSISSYLNWYQQKPGKAPNLLIYVASTLQSGVPSRFSGSGSGTDFTLTISSLQPEDFATYYCQQSYSIPLTFGGGTKVEIK
B9: anti-LY6K antibody 3035 (antibody, V domains shown)
VH: EVQLVESGGGLVQPGGSLKLSCAASGFTFSDSTLHWVRQASGKGLEWVGRIRSKANSYATAYAASVKGRFTISRDDSKNTAYLQMNSLKTEDTAVYYCHNWSYGYWGQGTLVTVSS
VL: QTVVTQEPSLTVSPGGTVTLTCASSTGAVTSYYYPNWFQQKPGQAPRTVIYSTTNKHSWTPARFSGSLLGGKAALTLSGVLPEDEADYYCLLFYGGAYVFGTGTKVTVL

Residue numbers refer to the chain shown, from its start.

In one assay the target is T1, Human LY6K (R&D Systems). The assay can be described thus: ELISA, coated antigen, IgG1 at 10 ug/ml. A general note: An ELISA detects its analyte on a solid surface through an enzyme-linked reagent.
B1: the “% of maximum of commercial anti-LY6K mAb on human LY6K” value (shortened to “% of maximum … on human LY6K”) turned out to be 94.9%.
For the molecule B2, the “% of maximum … on human LY6K” value was 81.2%.
As to B3, the “% of maximum … on human LY6K” value was determined as 99.4%.
On the same count and under the same terms, for B4 the value was 35%; for B5, 67.6%; for B6, 102%.
The same measure, in the same setting: for B7 the value was 89.2%; for B8, 43.7%.
Still for that read-out and setting: for B9 the value was 65.2%.

The next assay has as its target T9, cynomolgus monkey LY6K (R&D Systems) (cynomolgus monkey).
T9 construct: also called cyLY6K
The assay can be described thus: ELISA, coated antigen, IgG1 at 10 ug/ml.
In the case of B1, the “% of maximum … on human LY6K” value stood at 3%.
Regarding B2, the “% of maximum … on human LY6K” value came to 0.1%.
Same read-out and setting: the result for B3 reads 0.2%; that for B4, 37.2%.
As for B5, the “% of maximum … on human LY6K” value amounted to 66.4%.
Turning to B6, the “% of maximum … on human LY6K” value amounted to 1.1%.
Same read-out and setting: the result for B7 reads -0.2%; that for B8, 57.2%.
On the same count and under the same terms, the result for B9 reads 71.4%.

The target in another assay is T10, rat LY6K (R&D Systems) (rat).
T10 construct: also called rLY6K
The assay can be described thus: ELISA, coated antigen, IgG1 at 10 ug/ml.
On to B1, for which the “% of maximum … on human LY6K” value was 0.6%.
On the same count and under the same terms, for B2 the value was 1.5%; for B3, 0.9%; for B4, 0%.
For the molecule B5, the “% of maximum … on human LY6K” value was -1.6%.
The same measure, in the same setting: the result for B6 reads 0%; that for B7, -1.2%; that for B8, 2.5%.
The same measure, in the same setting: for B9 the value was 1%.

The target in another assay is T2, human LY6E (R&D Systems). The assay can be described thus: ELISA, coated antigen, IgG1 at 10 ug/ml.
With B1, the “% of maximum … on human LY6K” value came out at 2.4%.
B2: the “% of maximum … on human LY6K” value came to 2.5%.
The same measure, in the same setting: the result for B3 reads 2.7%.
On to B4, for which the “% of maximum … on human LY6K” value stood at 1%.
On the same count and under the same terms, the result for B5 reads 3.1%.
Same read-out and setting: for B6 the value was 7.8%.
Still for that read-out and setting: the result for B7 reads 3.4%.
Consider B8, for which the “% of maximum … on human LY6K” value was 4.5%.
With B9, the “% of maximum … on human LY6K” value came out at 5.6%.

The next assay concerns the target T3, cell-surface anchored LY6K. The assay can be described thus: flow cytometry on target cells, MFI fitted in Prism. For orientation: A flow cytometer gives signals particle by particle.
In the case of B2, the response was half-maximal at 3.33 nM (EC50).
On the same count and under the same terms, the result for B3 reads 2.84 nM; that for B6, 58.1 nM; that for B7, 164 nM.

The next assay addresses T4, recombinant human LY6K (Wuxi). The assay can be described thus: ELISA, LY6K coated at 2 ug/mL, HRP-labelled mAb titrated.
Consider B2, for which the EC50 (in general, the concentration needed to bring the measured effect to its halfway point) was found to be 2.65 nM.
Consider B3, for which the EC50 came out at 2.08 nM.
Take B5: the EC50 came to 3.08 nM.
Take B6: the EC50 was determined as 16.2 nM.
Same read-out and setting: for B7 the value was 5.2 nM.
Still for that read-out and setting: the result for B9 reads 2.86 nM.

A further assay has as its target T5, hLY6K-his. The assay can be described thus: SPR (Carterra LSA), mAb captured on anti-human IgG-Fc, antigen as analyte.
With B1, binding was put at a Kd of 1.83 nM.
On the same count and under the same terms, for B2 the value was 4.7 nM; for B3, 1.19 nM; for B4, 63.8 nM.
Still for that read-out and setting: the result for B5 reads 5.66 nM; that for B6, 6.31 nM.
On to B7, for which the Kd (as a rule, the equilibrium constant for the complex coming apart) was 3.23 nM.
On the same count and under the same terms, for B8 the value was 7.48 nM.

In a further assay the target is T6, hLY6K-mFc. The description is as above.
For B1, the Kd worked out at 0.0264 nM.
The same measure, in the same setting: the result for B2 reads 0.0428 nM.
B3 registered a Kd of 0.0157 nM.
On the same count and under the same terms, for B4 the value was 1.36 nM; for B5, 0.0505 nM; for B6, 0.185 nM.
Same read-out and setting: the result for B7 reads 0.164 nM; that for B8, 0.263 nM.

The next assay has as its target cyLY6K-mFc (cynomolgus monkey). The assay is described as above.
B4 registered a Kd of 9.49 nM.
For the molecule B5, the Kd worked out at 0.379 nM.
The molecule B8 came in with a Kd of 1.39 nM.

The next assay deals with T7, Ly6D. The assay can be described thus: ELISA, antigen coated on the plate, antibody as human IgG1, anti-human F(ab)2 HRPO.
As for B5, the binding result is listed as “no binding (tested: 10 µg/ml)”.
Still for that read-out and setting: for B7 the value was “no binding (tested: 10 µg/ml)”; for B8, “no binding (tested: 10 µg/ml)”.
Consider B9, for which the binding result is listed as “no binding (tested: 10 µg/ml)”.

A further assay deals with T8, Ly6H. The assay is described as above.
On to B5, for which the binding result is reported as “no binding (tested: 10 µg/ml)”.
Still for that read-out and setting: the result for B7 reads “no binding (tested: 10 µg/ml)”.
In the case of B8, the binding result was “no binding (tested: 10 µg/ml)”.
Still for that read-out and setting: for B9 the value was “no binding (tested: 10 µg/ml)”.

The target of the next assay is T2, human LY6E (R&D Systems). Described as above.
Take B5: the binding result is reported as “no binding (tested: 10 µg/ml)”.
On the same count and under the same terms, for B7 the value was “no binding (tested: 10 µg/ml)”; for B8, “no binding (tested: 10 µg/ml)”; for B9, “no binding (tested: 10 µg/ml)”.

The target of a further assay is T4, recombinant human LY6K (Wuxi). The assay can be described thus: capture ELISA (MSD): antibody coated as capture at 2 µg/mL, recombinant human LY6K titrated, sulfo-tagged polyclonal anti-hLY6K (AF6648) for detection; EC50 is the LY6K concentration.
Consider B1, for which the EC50 is 0.163 µg/mL.
Same read-out and setting: the result for B5 reads 0.0568 µg/mL.
B7: the EC50 is 0.315 µg/mL.
The same measure, in the same setting: for B9 the value was 0.168 µg/mL.

For the origin of these results see patent publication US20260193375A1 (NORMUNITY, published 2026).
